Assay [1] has as its target full-length human PARP1 (activated by DNA) (human), P09874. As to the kind of experiment: ITC; in the presence of DNA. The note with it: natural protein; chains chain; remark: other sources report otherwise.
Assay [2] has the same target. As to the kind of experiment: ITC; HPF1 in the syringe; full-length PARP1 0.02 mM pre-incubated with 0.06 mM DNA hairpin at 4 °C for at least 60 min, in the cell; 25 °C; 20 mM Tris-pH 8.0, 150 mM NaCl, 1 mM TCEP, 1 mM MgCl2. The note with it: remark: other sources report otherwise. For orientation: Isothermal titration calorimetry measures the heat released or taken up as one component is titrated into another.

Chain of full-length human PARP1 (activated by DNA) (human), P09874 (P09874 whole entry): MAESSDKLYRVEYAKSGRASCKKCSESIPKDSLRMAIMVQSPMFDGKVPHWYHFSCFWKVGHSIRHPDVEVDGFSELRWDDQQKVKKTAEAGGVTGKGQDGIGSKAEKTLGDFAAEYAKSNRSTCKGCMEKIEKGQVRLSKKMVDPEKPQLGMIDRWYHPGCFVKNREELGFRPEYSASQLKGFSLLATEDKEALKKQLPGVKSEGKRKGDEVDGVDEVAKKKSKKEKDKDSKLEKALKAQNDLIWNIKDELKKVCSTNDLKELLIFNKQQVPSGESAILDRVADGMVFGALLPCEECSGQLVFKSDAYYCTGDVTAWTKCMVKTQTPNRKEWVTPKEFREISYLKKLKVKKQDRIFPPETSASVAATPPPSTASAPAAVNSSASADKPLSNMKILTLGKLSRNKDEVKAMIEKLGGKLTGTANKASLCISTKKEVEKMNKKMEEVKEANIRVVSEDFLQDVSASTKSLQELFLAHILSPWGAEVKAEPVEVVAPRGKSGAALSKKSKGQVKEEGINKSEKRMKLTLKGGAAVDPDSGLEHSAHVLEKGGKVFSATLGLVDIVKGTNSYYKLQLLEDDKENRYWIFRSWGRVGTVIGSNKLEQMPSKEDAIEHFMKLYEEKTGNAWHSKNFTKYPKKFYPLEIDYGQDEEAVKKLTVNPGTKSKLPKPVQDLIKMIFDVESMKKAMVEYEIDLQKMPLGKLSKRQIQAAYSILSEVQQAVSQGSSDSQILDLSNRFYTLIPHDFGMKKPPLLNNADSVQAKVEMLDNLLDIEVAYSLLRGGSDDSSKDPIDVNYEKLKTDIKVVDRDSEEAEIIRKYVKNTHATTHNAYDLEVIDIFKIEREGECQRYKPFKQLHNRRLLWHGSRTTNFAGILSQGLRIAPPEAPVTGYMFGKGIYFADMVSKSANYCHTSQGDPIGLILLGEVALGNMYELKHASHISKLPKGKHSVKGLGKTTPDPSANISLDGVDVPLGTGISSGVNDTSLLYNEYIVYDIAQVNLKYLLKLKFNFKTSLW

B1: human HPF1 (histone PARylation factor 1), wild-type, Q9NWY4 1-346 (natural protein)
chain: MVGGGGKRRPGGEGPQCEKTTDVKKSKFCEADVSSDLRKEVENHYKLSLPEDFYHFWKFCEELDPEKPSDSLSASLGLQLVGPYDILAGKHKTKKKSTGLNFNLHWRFYYDPPEFQTIIIGDNKTQYHMGYFRDSPDEFPVYVGINEAKKNCIIVPNGDNVFAAVKLFLTKKLREITDKKKINLLKNIDEKLTEAARELGYSLEQRTVKMKQRDKKVVTKTFHGAGLVVPVDKNDVGYRELPETDADLKRICKTIVEAASDEERLKAFAPIQEMMTFVQFANDECDYGMGLELGMDLFCYGSHYFHKVAGQLLPLAYNLLKRNLFAEIIEEHLANRSQENIDQLAA
In general, Kd refers to the concentration at which binding is half-saturated. Lower therefore signals higher affinity. For B1, the Ka in assay [1] came out at 330000 M⁻¹. For the same molecule, in assay [2], the Kd came out at 2800 nM.

Values taken from PMC7884425.
